Data published in paper PMC5493754, “Myosin 7 and its adaptors link cadherins to actin” (Nature Communications, 2017).

T1: YFP-Full length (FL)-harmonin (harmonin-a1) (human, UniProt Q9Y6N9-1 1-552)
T1 construct: Harmonin-a1 (USH1C), human, residues 1-552 of UniProt Q9Y6N9-1; also called ^YFPFL (isoA); ^YFPFL; source: E. coli BL21 (DE3) Rosetta, purified (Glutathione Sepharose 4B, size-exclusion chromatography)
T1 sequence (looked up): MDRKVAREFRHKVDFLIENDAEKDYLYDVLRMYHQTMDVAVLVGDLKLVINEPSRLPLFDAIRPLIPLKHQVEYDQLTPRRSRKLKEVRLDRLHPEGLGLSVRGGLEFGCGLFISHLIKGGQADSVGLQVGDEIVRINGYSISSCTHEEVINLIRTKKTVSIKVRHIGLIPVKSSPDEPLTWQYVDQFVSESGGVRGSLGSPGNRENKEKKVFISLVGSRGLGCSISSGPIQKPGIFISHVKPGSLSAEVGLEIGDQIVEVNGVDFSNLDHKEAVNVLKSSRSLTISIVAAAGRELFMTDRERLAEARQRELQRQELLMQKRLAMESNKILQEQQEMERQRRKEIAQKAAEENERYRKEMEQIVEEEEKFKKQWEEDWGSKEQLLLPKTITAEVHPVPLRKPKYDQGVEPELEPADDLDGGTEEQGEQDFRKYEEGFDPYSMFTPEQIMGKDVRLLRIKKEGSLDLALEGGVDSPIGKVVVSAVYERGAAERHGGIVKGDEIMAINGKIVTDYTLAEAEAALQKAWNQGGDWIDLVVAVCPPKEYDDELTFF

T2: YFP-Harmonin NPDZ1.PDZ2 (human, UniProt Q9Y6N9-1 1-301)
T2 construct: Harmonin-a1 (USH1C), human, residues 1-301 of UniProt Q9Y6N9-1; also called ^YFPNPDZ1.PDZ2; source: E. coli BL21 (DE3) Rosetta, purified (Glutathione Sepharose 4B, size-exclusion chromatography)
T2 sequence (looked up): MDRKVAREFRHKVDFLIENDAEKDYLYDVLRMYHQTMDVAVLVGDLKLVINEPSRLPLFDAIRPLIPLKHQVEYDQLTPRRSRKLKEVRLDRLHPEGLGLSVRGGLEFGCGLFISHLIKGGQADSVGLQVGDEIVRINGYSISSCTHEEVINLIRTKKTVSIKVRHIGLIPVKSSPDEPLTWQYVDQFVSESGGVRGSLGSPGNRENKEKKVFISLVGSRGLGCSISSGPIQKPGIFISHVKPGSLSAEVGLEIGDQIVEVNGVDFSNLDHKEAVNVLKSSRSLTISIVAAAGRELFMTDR

T3: Full length (FL)-harmonin (harmonin-a1) (human, UniProt Q9Y6N9-1 1-552)
T3 construct: Harmonin-a1 (USH1C), human, residues 1-552 of UniProt Q9Y6N9-1; also called FL-harmonin-a; source: E. coli BL21 (DE3) Rosetta, purified (Glutathione Sepharose 4B, size-exclusion chromatography)
T3 sequence (looked up): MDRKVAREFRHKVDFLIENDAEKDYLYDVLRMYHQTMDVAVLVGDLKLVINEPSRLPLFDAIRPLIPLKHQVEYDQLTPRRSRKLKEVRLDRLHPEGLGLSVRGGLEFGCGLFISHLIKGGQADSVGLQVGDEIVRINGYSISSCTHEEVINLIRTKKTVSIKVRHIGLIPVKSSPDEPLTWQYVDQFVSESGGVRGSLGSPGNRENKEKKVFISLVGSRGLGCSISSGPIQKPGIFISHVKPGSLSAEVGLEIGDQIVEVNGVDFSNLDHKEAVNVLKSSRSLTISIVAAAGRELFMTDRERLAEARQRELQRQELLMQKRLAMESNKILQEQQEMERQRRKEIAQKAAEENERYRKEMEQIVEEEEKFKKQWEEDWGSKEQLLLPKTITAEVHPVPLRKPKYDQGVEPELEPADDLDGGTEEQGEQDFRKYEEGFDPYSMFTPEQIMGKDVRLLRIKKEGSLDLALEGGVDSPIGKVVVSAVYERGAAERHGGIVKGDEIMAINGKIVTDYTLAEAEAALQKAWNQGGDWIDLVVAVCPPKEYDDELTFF

T4: FL-harmonin-ΔCter (human, UniProt Q9Y6N9-1 1-542)
T4 construct: Harmonin-a1 (USH1C), human, residues 1-542 of UniProt Q9Y6N9-1; also called FL ΔCter; source: E. coli BL21 (DE3) Rosetta, purified (Glutathione Sepharose 4B, size-exclusion chromatography)
T4 sequence (looked up): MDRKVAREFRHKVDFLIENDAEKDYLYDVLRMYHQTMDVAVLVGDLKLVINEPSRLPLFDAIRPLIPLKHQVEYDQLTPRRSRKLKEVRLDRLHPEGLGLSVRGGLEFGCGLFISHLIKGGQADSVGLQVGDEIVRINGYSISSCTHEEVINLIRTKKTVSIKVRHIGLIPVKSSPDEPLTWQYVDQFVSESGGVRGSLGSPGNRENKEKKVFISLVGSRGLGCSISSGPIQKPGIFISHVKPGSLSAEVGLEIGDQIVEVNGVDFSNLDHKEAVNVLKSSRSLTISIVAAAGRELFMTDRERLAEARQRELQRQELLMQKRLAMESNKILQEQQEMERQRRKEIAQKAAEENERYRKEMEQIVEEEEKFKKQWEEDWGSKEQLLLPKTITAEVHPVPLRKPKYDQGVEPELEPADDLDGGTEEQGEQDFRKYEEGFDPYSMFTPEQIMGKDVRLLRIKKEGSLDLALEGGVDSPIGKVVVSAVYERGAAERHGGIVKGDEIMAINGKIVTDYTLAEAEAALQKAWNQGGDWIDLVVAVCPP

T5: Harmonin NPDZ1.PDZ2 (human, UniProt Q9Y6N9-1 1-301)
T5 construct: Harmonin-a1 (USH1C), human, N-terminal domain, PDZ1 and PDZ2, residues 1-301 of UniProt Q9Y6N9-1; source: E. coli BL21 (DE3) Rosetta, purified (Glutathione Sepharose 4B, size-exclusion chromatography)
T5 sequence (looked up): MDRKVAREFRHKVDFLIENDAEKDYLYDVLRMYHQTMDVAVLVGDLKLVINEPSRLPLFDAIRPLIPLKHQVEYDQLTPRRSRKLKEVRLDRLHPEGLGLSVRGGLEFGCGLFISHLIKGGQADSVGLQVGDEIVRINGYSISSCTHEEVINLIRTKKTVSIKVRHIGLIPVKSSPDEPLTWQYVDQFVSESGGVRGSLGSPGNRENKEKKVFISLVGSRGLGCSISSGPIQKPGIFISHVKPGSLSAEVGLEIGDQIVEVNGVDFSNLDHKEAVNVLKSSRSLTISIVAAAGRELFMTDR


Key:
Settings in all cases: both partners purified
[1] = target: T1, YFP-Full length (FL)-harmonin …; assay: MST; as a1 but 150 mM NaCl (for FL-Harmonin-a); YFP-fused partner constant at 100 nM, non-fluorescent protein titrated
YFP-Harmonin NPDZ1.PDZ2 = target: T2, YFP-Harmonin NPDZ1.PDZ2; assay: MST; YFP-fused partner constant at 100 nM, non-fluorescent protein titrated (16 two-fold dilutions); 20 mM Hepes pH 7.0, 100 mM NaCl, 1 mM EGTA, 0.5 mM TCEP, 0.05% Tween 20; Monolith NT.115
[2] = target: T3, Full length (FL)-harmonin (harmonin-a1); assay: MST; as a1 but 150 mM NaCl (for FL-Harmonin-a); YFP-fused partner constant at 100 nM, non-fluorescent protein titrated
FL-harmonin-ΔCter = target: T4, FL-harmonin-ΔCter; assay: as above
Harmonin NPDZ1.PDZ2 = target: T5, Harmonin NPDZ1.PDZ2; assay: MST; YFP-fused partner constant at 100 nM, non-fluorescent protein titrated (16 two-fold dilutions); 20 mM Hepes pH 7.0, 100 mM NaCl, 1 mM EGTA, 0.5 mM TCEP, 0.05% Tween 20; Monolith NT.115

| Kd [1] [µM] | Kd (YFP-Harmonin NPDZ1.PDZ2) [µM] | Kd [2] [µM] | Kd (FL-harmonin-ΔCter) [µM] | Kd (Harmonin NPDZ1.PDZ2) [µM] | Binder |
| --- | --- | --- | --- | --- | --- |
| 1.4 | 5.2 |  |  |  | Harmonin-a PDZ3c (non-fluorescent, as used in MST) (domain or fragment, human, UniProt Q9Y6N9-1 428-552, looked up, Harmonin-a1 (USH1C), human, PDZ3 plus C-terminal peptide, residues 428-552 of UniProt Q9Y6N9-1; The methods say only that samples for ITC or crystallisation were digested with TEV protease; also called PDZ3c (isoA); source: E. coli BL21 (DE3) Rosetta, purified (Glutathione Sepharose 4B, size-exclusion chromatography)) QDFRKYEEGFDPYSMFTPEQIMGKDVRLLRIKKEGSLDLALEGGVDSPIGKVVVSAVYERGAAERHGGIVKGDEIMAINGKIVTDYTLAEAEAALQKAWNQGGDWIDLVVAVCPPKEYDDELTFF |
|  |  | 1.9 | 2.3 | 3.2 | YFP-Harmonin-a PDZ3c (domain or fragment, human, UniProt Q9Y6N9-1 428-552, looked up, Harmonin-a1 (USH1C), human, residues 428-552 of UniProt Q9Y6N9-1; also called ^YFPPDZ3c (isoA); source: E. coli BL21 (DE3) Rosetta, purified (Glutathione Sepharose 4B, size-exclusion chromatography)) QDFRKYEEGFDPYSMFTPEQIMGKDVRLLRIKKEGSLDLALEGGVDSPIGKVVVSAVYERGAAERHGGIVKGDEIMAINGKIVTDYTLAEAEAALQKAWNQGGDWIDLVVAVCPPKEYDDELTFF |
